Publication PMC4831350

Columns and labels:
[1] = target: human receptor for advanced glycation endproducts (RAGE) on A375-hRAGE cells (human) (UniProt Q15109)
[2] = target: receptor for advanced glycation endproducts (RAGE) on wild-type A375 cells (human (endogenous in A375)) (UniProt Q15109)
[3] = target: extracellular S100A4 secreted by A375-hS100A4 cells (human) (UniProt P26447)
[4] = target: extracellular S100A4 secreted by A375 cells (human (endogenous in A375)) (UniProt P26447)

“extracellular S100A4 secreted by A375 cells (from UniProt P26447 1-101) (natural protein)” was tested. Which decrease of invasion of A375-hRAGE cells (Boyden chamber with Matrigel) with blocking anti-RAGE antibody (10 μg/ml; R&D), against untreated cells [1] did it give?
The decrease of invasion of A375-hRAGE cells (Boyden chamber with Matrigel) with blocking anti-RAGE antibody (10 μg/ml; R&D), against untreated cells was 15%.

What about the decrease of migration of A375-hRAGE cells (Boyden chamber) with blocking anti-RAGE antibody (10 μg/ml; R&D), against untreated cells [1] of the same substance?
Its decrease of migration of A375-hRAGE cells (Boyden chamber) with blocking anti-RAGE antibody (10 μg/ml; R&D), against untreated cells is 10%.

What does the source list for “recombinant human S100A4 (from UniProt P26447 1-101) (natural protein)”?
increase of invasion of A375 cells (Boyden chamber with Matrigel) with recombinant S100A4 (150 ng/ml), against untreated cells [2]: 21%; increase of migration of A375 cells (Boyden chamber) with recombinant S100A4 (150 ng/ml), against untreated cells [2]: 36%; increase of invasion of A375-hRAGE cells (Boyden chamber with Matrigel) with recombinant S100A4 (3000 ng/ml), against untreated cells [1]: 13%; increase of migration of A375-hRAGE cells (Boyden chamber) with recombinant S100A4 (3000 ng/ml), against untreated cells [1]: 23%

Which results are given for “soluble RAGE (sRAGE) (domain or fragment)”?
decrease of invasion of A375-hS100A4 cells (Boyden chamber with Matrigel) with sRAGE (150 ng/ml), against untreated cells; blocks extracellular S100A4 from membrane RAGE [3]: 15%; decrease of migration of A375-hS100A4 cells (Boyden chamber) with sRAGE (150 ng/ml), against untreated cells; blocks extracellular S100A4 from membrane RAGE [3]: 24%; relative migration of A375 cells (Boyden chamber) with sRAGE (150 ng/ml), untreated cells set as 100%; blocks extracellular S100A4 from membrane RAGE [4]: 63%
